Assay results: the supplement of paper PMC5998384

Columns and labels:
HeLa Kyoto [1] = assay: solubility change mitosis vs G1/S (difference of NP-40 vs SDS log2 ratios) (log2 ratio difference); higher = more soluble in mitosis
HeLa Kyoto [2] = assay: thermal stability score vs G1/S (z-score of summed log2 fold changes over temperatures); higher = more thermally stable than in G1/S
HeLa Kyoto [3] = assay: solubility in G1/S (NP-40 vs SDS abundance) (log2 ratio); higher = more soluble; details: cell cycle stage: G1/S
[4] = cell cycle stage: early G1 (4.5 h after nocodazole release)
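Throughout, for solubility change mitosis vs G1/S (difference of NP-40 vs SDS log2 ratios): synchronized HeLa Kyoto cells (double thymidine block for G1/S, nocodazole release for mitosis), protein amounts in NP-40 versus SDS lysates quantified by mass spectrometry, three biological replicates.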
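Throughout, for solubility in G1/S (NP-40 vs SDS abundance): HeLa Kyoto cells arrested at G1/S by double thymidine block, proteins quantified by TMT10plex mass spectrometry in mild NP-40 versus SDS extracts, three biological replicates.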
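Throughout, for thermal stability score vs G1/S (z-score of summed log2 fold changes over temperatures): synchronized HeLa Kyoto cells, proteins quantified by TMT10plex mass spectrometry, three biological replicates, mitosis taken 0.5 h after nocodazole release, G1/S directly after double thymidine block.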

Row | Sequence | solubility change mitosis (log2) (HeLa Kyoto [1]) | thermal stability score (HeLa Kyoto [2]; [4]) | thermal stability score (HeLa Kyoto [2]; cell cycle stage: mitosis) | solubility in G1/S (log2) (HeLa Kyoto [3])
1 | MTKLAQWLWGLAILGSTWVALTTGALGLELPLSCQEVLWPLPAYLLVSAGCYALGTVGYRVATFHDCEDAARELQSQIQEARADLARRGLRF [DPM3] | -0.214 | -3.28 | -4.14 | -0.196
2 | MTNPWEEKVCKMAQTSLLQGKQFYCREWVFHKLQHCLQEKSNCCNSAVNAPSLVMNSGNNASGVSGKGAAWGVLLVGGPGSGKTALCTELLWPSSPASLQRGLHRQALAFHFCKAQDSDTLCVGGFIRGLVAQICRSGLLQGYEDKLRDPAVQSLLQPGECERNPAEAFKRCVLLPLLGMKPPQQSLYLLVDSVDEGCNITEGEQTSTSLSGTVAALLAGHHEFFPPWLLLLCSARKQSKAVTKMFTGFRKISLDDLRKAYIVKDVQQYILHRLDQEEALRQHLTKETAEMLNQLHIKSSGCFLYLERVLDGVVENFIMLREIRDIPGTLNGLYLWLCQRLFVRKQFAKVQPILNVILAACRPLTITELYHAVWTKNMSLTLEDFQRKLDILSKLLVDGLGNTKILFHYSFAEWLLDVKHCTQKYLCNAAEGHRMLAMSYTCQAKNLTPLEAQEFALHLINSNLQLETAELALWMIWNGTPVRDSLSTLIPKEQEVLQLLVKAGAHVNSEDDRTSCIVRQALEREDSIRTLLDNGASVNQCDSNGRTLLANAAYSGSLDVVNLLVSRGADLEIEDAHGHTPLTLAARQGHTKVVNCLIGCGANINHTDQDGWTALRSAAWGGHTEVVSALLYAGVKVDCADADSRTALRAAAWGGHEDIVLNLLQHGAEVNKADNEGRTALIAAAYMGHREIVEHLLDHGAEVNHEDVDGRTALSVAALCVPASKGHASVVSLLIDRGAEVDHCDKDGMTPLLVAAYEGHVDVVDLLLEGGADVDHTDNNGRTPLLAAASMGHASVVNTLLFWGAAVDSIDSEGRTVLSIASAQGNVEVVRTLLDRGLDENHRDDAGWTPLHMAAFEGHRLICEALIEQGARTNEIDNDGRIPFILASQEGHYDCVQILLENKSNIDQRGYDGRNALRVAALEGHRDIVELLFSHGADVNCKDADGRPTLYILALENQLTMAEYFLENGANVEASDAEGRTALHVSCWQGHMEMVQVLIAYHADVNAADNEKRSALQSAAWQGHVKVVQLLIEHGAVVDHTCNQGATALCIAAQEGHIDVVQVLLEHGADPNHADQFGRTAMRVAAKNGHSQIIKLLEKYGASSLNGCSPSPVHTMEQKPLQSLSSKVQSLTIKSNSSGSTGGGDMQPSLRGLPNGPTHAFSSPSESPDSTVDRQKSSLSNNSLKSSKNSSLRTTSSTATAQTVPIDSFHNLSFTEQIQQHSLPRSRSRQSIVSPSSTTQSLGQSHNSPSSEFEWSQVKPSLKSTKASKGGKSENSAKSGSAGKKAKQSNSSQPKVLEYEMTQFDRRGPIAKSGTAAPPKQMPAESQCKIMIPSAQQEIGRSQQQFLIHQQSGEQKKRNGIMTNPNYHLQSNQVFLGRVSVPRTMQDRGHQEVLEGYPSSETELSLKQALKLQIEGSDPSFNYKKETPL [ANKRD50] | -0.256 | -0.667 | -0.543 | 0.02
3 | MTTAQRDSLLWKLAGLLRESGDVVLSGCSTLSLLTPTLQQLNHVFELHLGPWGPGQTGFVALPSHPADSPVILQLQFLFDVLQKTLSLKLVHVAGPGPTGPIKIFPFKSLRHLELRGVPLHCLHGLRGIYSQLETLICSRSLQALEELLSACGGDFCSALPWLALLSANFSYNALTALDSSLRLLSALRFLNLSHNQVQDCQGFLMDLCELHHLDISYNRLHLVPRMGPSGAALGVLILRGNELRSLHGLEQLRNLRHLDLAYNLLEGHRELSPLWLLAELRKLYLEGNPLWFHPEHRAATAQYLSPRARDAATGFLLDGKVLSLTDFQTHTSLGLSPMGPPLPWPVGSTPETSGGPDLSDSLSSGGVVTQPLLHKVKSRVRVRRASISEPSDTDPEPRTLNPSPAGWFVQQHPELELMSSFRERFGRNWLQYRSHLEPSGNPLPATPTTSAPSAPPASSQGPDTAPRPSPPQEEARGPQESPQKMSEEVRAEPQEEEEEKEGKEEKEEGEMVEQGEEEAGEEEEEEQDQKEVEAELCRPLLVCPLEGPEGVRGRECFLRVTSAHLFEVELQAARTLERLELQSLEAAEIEPEAQAQRSPRPTGSDLLPGAPILSLRFSYICPDRQLRRYLVLEPDAHAAVQELLAVLTPVTNVAREQLGEARDLLLGRFQCLRCGHEFKPEEPRMGLDSEEGWRPLFQKTESPAVCPNCGSDHVVLLAVSRGTPNRERKQGEQSLAPSPSASPVCHPPGHGDHLDRAKNSPPQAPSTRDHGSWSLSPPPERCGLRSVDHRLRLFLDVEVFSDAQEEFQCCLKVPVALAGHTGEFMCLVVVSDRRLYLLKVTGEMREPPASWLQLTLAVPLQDLSGIELGLAGQSLRLEWAAGAGRCVLLPRDARHCRAFLEELLDVLQSLPPAWRNCVSATEEEVTPQHRLWPLLEKDSSLEARQFFYLRAFLVEGPSTCLVSLLLTPSTLFLLDEDAAGSPAEPSPPAASGEASEKVPPSGPGPAVRVREQQPLSSLSSVLLYRSAPEDLRLLFYDEVSRLESFWALRVVCQEQLTALLAWIREPWEELFSIGLRTVIQEALALDR [STK11IP] | -0.0941 | -0.272 | -1.04 | -0.0528
